Data reported in paper PMC3874162 (Nucleic Acids Research, 2013).

Assays:
Assay in all cases: EMSA
Cdc13-K622A = target: T1, Cdc13-K622A (Saccharomyces cerevisiae, UniProt P32797 1-924, K622A)
T1 sequence: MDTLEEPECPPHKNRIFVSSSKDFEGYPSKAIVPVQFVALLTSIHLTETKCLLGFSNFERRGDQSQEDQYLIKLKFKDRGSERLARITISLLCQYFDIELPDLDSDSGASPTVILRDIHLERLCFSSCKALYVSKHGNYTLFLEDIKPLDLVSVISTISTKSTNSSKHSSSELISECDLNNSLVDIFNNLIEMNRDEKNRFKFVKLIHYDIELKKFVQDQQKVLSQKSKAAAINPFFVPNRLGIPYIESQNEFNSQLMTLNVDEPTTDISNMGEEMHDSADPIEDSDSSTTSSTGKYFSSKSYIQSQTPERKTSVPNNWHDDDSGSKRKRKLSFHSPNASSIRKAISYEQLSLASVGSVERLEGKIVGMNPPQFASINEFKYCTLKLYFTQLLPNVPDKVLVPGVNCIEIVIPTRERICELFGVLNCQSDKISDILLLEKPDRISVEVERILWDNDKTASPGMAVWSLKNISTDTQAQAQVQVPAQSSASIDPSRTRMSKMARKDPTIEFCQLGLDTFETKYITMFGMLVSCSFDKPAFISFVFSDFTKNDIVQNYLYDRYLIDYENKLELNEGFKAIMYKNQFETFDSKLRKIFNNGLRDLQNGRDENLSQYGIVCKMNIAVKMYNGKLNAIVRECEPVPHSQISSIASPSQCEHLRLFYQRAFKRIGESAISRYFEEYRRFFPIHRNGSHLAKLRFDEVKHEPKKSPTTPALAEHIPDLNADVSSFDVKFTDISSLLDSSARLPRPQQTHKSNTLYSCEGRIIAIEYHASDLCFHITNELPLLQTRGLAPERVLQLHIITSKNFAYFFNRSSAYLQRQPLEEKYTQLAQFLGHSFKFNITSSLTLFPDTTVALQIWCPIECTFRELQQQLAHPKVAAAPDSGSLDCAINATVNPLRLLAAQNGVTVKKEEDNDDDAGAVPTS

Cdc13-MOB-DBD = target: T2, Cdc13-MOB-DBD (Saccharomyces cerevisiae, UniProt P32797 344-694)
T2 sequence: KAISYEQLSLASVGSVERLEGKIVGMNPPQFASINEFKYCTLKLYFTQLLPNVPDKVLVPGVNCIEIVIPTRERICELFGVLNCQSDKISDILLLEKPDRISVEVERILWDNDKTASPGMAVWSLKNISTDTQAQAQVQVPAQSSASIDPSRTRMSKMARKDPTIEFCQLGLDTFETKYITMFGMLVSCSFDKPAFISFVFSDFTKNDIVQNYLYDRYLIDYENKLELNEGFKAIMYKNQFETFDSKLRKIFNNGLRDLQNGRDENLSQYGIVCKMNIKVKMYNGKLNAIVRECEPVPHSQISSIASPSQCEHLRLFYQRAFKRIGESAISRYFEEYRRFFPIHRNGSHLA

Cdc13-DBD = target: T3, Cdc13-DBD (Saccharomyces cerevisiae, UniProt P32797 497-694)
T3 sequence: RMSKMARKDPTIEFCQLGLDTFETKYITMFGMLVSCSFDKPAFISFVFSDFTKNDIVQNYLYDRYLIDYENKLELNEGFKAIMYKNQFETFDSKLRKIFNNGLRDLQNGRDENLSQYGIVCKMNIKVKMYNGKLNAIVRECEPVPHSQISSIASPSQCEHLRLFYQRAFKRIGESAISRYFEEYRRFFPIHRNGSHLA

Cdc13-F539A = target: T4, Cdc13-F539A (Saccharomyces cerevisiae, UniProt P32797 1-924, F539A)
T4 sequence: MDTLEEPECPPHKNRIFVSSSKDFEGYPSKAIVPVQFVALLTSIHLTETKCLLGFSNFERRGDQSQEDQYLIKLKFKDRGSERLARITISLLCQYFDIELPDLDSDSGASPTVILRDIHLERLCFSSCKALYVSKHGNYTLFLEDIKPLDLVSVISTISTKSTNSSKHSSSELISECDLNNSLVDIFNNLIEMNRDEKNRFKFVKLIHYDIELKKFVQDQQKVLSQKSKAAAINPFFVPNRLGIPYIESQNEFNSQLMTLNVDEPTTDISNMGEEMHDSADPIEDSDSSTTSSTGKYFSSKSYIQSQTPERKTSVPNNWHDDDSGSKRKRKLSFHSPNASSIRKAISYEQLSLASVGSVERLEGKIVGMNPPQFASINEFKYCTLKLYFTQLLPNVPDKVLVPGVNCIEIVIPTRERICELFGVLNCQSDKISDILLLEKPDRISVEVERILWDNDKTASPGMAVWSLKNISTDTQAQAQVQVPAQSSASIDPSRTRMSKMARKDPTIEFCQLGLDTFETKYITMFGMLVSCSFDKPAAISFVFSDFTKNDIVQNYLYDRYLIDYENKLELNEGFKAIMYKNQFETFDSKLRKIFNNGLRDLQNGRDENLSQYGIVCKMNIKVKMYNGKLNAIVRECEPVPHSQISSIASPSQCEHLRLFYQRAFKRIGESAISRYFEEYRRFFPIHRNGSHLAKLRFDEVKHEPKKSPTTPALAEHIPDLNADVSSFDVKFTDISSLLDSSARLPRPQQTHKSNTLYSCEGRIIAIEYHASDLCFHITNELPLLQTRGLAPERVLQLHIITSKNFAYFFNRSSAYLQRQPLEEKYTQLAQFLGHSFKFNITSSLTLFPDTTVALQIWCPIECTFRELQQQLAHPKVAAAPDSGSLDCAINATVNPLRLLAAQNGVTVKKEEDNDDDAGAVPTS

B1: Tel11 (ssDNA)
DNA: GTGTGGGTGTG
Kd (Cdc13-K622A): 0.05 ± 0.003 nM | Kd (Cdc13-MOB-DBD): 0.0023 ± 0.0002 nM | Kd (Cdc13-DBD): 0.0034 ± 0.0005 nM | Kd (Cdc13-F539A): 0.14 ± 0.02 nM
